# Legend:
# [1] = target: HuCTLA4-HuIgG1 (fusion protein of the extracellular part of human CD152 and human Fc gamma 1, CTLA4-Ig) (human) (UniProt P16410); test: alphascreen, CTLA4-Fc; blocked ligand biotinylated CD80-Fc
# [2] = target: human CTLA4 (Y201 mutated to valine) on stably transfected CHO-K1 cells (human) (UniProt P16410); test: FACS competition, human CTLA4 CHO cells; blocked ligand HuB7.1/Fc
# [3] = target: rhB7-H2-Fc (fusion protein of the extracellular part of human B7-H2 (ICOSL) and mouse Fc gamma 1, R&D Systems Cat #165-B7) (human; mouse) (UniProt O75144); test: competition ELISA, coated B7-H2; competes with ICOS-biotin
# Sequence of rhB7-H2-Fc (fusion protein of the extracellular part of human B7-H2 (ICOSL) and mouse Fc gamma 1, R&D Systems Cat #165-B7) (human; mouse) (O75144 other isoform, or with tags, fused parts or gaps limits assumed): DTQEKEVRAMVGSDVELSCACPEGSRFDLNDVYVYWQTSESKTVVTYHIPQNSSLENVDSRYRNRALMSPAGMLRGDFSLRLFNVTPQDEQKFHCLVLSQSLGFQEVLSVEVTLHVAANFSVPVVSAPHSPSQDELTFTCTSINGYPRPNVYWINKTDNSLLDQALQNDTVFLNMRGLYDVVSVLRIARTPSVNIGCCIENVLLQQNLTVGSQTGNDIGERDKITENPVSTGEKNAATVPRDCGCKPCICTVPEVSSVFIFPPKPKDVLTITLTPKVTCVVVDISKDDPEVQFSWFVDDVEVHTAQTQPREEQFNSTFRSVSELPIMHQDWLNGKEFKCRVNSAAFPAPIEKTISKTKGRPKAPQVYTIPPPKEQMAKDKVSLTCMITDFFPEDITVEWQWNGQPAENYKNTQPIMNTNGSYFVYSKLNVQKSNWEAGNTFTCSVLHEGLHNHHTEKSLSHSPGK
# Sequence of HuCTLA4-HuIgG1 (fusion protein of the extracellular part of human CD152 and human Fc gamma 1, CTLA4-Ig) (human) (P16410 36-161 limits assumed): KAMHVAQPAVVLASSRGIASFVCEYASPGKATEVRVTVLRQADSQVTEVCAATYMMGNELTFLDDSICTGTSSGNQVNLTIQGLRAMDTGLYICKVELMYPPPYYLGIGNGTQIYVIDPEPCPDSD
# Sequence of human CTLA4 (Y201 mutated to valine) on stably transfected CHO-K1 cells (human) (P16410 other isoform, or with tags, fused parts or gaps, change not shown): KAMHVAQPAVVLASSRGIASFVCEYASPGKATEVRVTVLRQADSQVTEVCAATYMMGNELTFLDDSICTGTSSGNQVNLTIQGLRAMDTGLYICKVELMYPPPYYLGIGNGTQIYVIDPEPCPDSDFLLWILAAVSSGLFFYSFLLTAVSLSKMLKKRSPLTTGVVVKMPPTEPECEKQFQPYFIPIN
# Sequence of cold ICOS (receptor) (Q9Y6W8 21-140): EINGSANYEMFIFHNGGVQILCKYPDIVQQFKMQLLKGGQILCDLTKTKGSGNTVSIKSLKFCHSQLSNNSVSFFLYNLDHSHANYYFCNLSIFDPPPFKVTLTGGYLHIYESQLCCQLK
Substance,IC50 (read off the curve) [1],IC50 (read off the curve) [2],IC50 (read off the curve) [3]
Mouse-anti-human CTLA4 clone BNI3 (antibody),0.3 nM,10 nM,–
BNI3 fab,2 nM,–,–
cold ICOS (receptor),–,–,20 nM

# Source: patent publication US20240182575A1
